Laboratory results taken from article PMC8379176 (Nature Communications, 2021).

Tests used:
Experiment in all cases: AlphaScreen or HTRF; saturation binding on HEK293 cells transfected with SNAP-ghrelin receptor (WT or mutants) labelled with SNAP-Lumi4-Tb; increasing concentrations of ghrelin-A2 in the presence or absence of 10 uM unlabeled ghrelin, 1 h at R.T.; HTRF ratio 665 nm/620 nm; one Kd for each of three experiments
[1] = biological target: N-terminal-SNAP-tagged ghrelin receptor F312A (human) (UniProt Q92847)
[2] = biological target: N-terminal-SNAP-tagged ghrelin receptor Q302A (human) (UniProt Q92847)
[3] = biological target: N-terminal-SNAP-tagged ghrelin receptor, wild type (human) (UniProt Q92847)

## ghrelin-A2 (full-length ghrelin labeled with the dye A2 on an additional cysteine at the C-terminal end) (peptide)
[1]
  Kd: 0.078 µM
[2]
  Kd: > 0.5 µM
[3]
  Kd: 0.011 µM
